{"source": "paper PMC3834196", "about": "“High Resolution Crystal Structure of Human β-Glucuronidase Reveals Structural Basis of Lysosome Targeting” (PLoS ONE, 2013)", "proteins": {"B1": {"name": "Human β-glucuronidase (enzyme, UniProt P08236 23-651, looked up)", "chain": "LQGGMLYPQESPSRECKELDGLWSFRADFSDNRRRGFEEQWYRRPLWESGPTVDMPVPSSFNDISQDWRLRHFVGWVWYEREVILPERWTQDLRTRVVLRIGSAHSYAIVWVNGVDTLEHEGGYLPFEADISNLVQVGPLPSRLRITIAINNTLTPTTLPPGTIQYLTDTSKYPKGYFVQNTYFDFFNYAGLQRSVLLYTTPTTYIDDITVTTSVEQDSGLVNYQISVKGSNLFKLEVRLLDAENKVVANGTGTQGQLKVPGVSLWWPYLMHERPAYLYSLEVQLTAQTSLGPVSDFYTLPVGIRTVAVTKSQFLINGKPFYFHGVNKHEDADIRGKGFDWPLLVKDFNLLRWLGANAFRTSHYPYAEEVMQMCDRYGIVVIDECPGVGLALPQFFNNVSLHHHMQVMEEVVRRDKNHPAVVMWSVANEPASHLESAGYYLKMVIAHTKSLDPSRPVTFVSNSNYAADKGAPYVDVICLNSYYSWYHDYGHLELIQLQLATQFENWYKKYQKPIIQSEYGAETIAGFHQDPPLMFTEEYQKSLLEQYHLGLDQKRRKYVVGELIWNFADFMTEQSPTRVLGNKKGIFTRQRQPKSAAFLLRERYWKIANETRYPHSVAKSQCLENSLFT", "modifications": "N-linked oligosaccharide at Asn173 (six mannose, one β-D-mannose, three N-acetyl glucosamine); single N-acetyl-glucopyranose at Asn272 (as seen in the electron density)", "notes": "β-glucuronidase, human, UniProt P08236; secreted enzyme; the final model holds residues 22 to 631 of each subunit; Homotetramer (subunits A, B, D, E) in the crystal; also called GUS; human GUS; source: CHO-K1, stably transfected, secreted"}}, "molecular_target": "the molecule itself", "experiment": "crystal structure; vapor diffusion, 50 mM Tris pH 7.5, 15% MPD, 25°C; four monomers (A, B, D, E) in the asymmetric unit; refined to 1.7 Å"}
{"protein": "B1", "values": [{"measurement": "stoichiometry N", "value": 4}]}
